The results in this text go back to paper PMC4167924.

This assay concerns the target adaptor protein 1A complex (AP-1A; γ/β1/μ1A/σ1), endogenous, mouse (mouse (endogenous in pituitary and in AtT-20)) (UniProt P22892). In words: co-IP.
Chain of UniProt P22892 (P22892 whole entry, chain 1 of 4): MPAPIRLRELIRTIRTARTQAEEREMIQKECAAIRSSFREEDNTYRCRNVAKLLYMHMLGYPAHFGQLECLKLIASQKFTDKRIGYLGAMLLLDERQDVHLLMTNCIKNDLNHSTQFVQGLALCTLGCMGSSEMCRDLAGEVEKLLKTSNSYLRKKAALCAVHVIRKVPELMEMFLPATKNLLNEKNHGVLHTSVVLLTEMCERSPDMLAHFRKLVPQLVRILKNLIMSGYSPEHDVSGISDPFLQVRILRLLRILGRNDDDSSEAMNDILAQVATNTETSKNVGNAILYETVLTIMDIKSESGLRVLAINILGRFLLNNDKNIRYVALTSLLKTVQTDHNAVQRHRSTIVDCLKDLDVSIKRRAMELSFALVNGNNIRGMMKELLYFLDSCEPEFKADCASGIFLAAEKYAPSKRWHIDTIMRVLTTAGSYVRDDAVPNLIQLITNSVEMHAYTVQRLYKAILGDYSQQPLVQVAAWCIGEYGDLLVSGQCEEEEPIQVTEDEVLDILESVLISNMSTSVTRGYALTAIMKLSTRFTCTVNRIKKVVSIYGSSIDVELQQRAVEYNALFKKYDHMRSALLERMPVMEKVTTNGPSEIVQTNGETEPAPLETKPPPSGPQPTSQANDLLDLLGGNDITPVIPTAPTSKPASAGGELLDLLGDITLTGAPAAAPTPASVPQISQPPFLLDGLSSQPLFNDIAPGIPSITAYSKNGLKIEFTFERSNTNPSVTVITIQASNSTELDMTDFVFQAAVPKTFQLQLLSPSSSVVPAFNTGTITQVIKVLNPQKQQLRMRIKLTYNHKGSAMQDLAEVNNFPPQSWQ
Chain of UniProt P22892 (O35643 whole entry, chain 2 of 4, further chain): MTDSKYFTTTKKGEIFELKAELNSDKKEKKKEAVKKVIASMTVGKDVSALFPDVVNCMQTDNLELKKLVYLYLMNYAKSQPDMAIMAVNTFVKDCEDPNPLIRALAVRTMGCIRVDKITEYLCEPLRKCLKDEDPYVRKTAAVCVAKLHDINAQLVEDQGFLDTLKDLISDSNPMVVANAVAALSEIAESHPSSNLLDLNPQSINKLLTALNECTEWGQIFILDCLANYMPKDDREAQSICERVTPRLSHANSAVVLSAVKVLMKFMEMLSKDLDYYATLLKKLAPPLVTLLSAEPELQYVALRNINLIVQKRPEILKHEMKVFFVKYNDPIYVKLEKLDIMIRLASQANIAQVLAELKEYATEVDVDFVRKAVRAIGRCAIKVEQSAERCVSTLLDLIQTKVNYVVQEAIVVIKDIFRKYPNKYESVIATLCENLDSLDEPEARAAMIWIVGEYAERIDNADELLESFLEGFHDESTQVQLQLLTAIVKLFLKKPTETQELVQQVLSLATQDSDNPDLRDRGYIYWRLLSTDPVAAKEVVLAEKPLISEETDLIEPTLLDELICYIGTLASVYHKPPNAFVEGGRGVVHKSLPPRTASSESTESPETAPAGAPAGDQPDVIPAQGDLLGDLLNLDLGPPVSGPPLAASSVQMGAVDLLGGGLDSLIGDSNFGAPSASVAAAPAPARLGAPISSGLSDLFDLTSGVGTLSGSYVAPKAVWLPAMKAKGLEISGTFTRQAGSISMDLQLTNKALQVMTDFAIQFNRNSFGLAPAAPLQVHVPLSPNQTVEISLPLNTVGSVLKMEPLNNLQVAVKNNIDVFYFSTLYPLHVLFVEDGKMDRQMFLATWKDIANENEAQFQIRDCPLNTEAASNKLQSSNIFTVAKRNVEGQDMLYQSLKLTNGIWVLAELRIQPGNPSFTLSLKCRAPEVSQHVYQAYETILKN
Chain of UniProt P22892 (P35585 whole entry, chain 3 of 4, further chain): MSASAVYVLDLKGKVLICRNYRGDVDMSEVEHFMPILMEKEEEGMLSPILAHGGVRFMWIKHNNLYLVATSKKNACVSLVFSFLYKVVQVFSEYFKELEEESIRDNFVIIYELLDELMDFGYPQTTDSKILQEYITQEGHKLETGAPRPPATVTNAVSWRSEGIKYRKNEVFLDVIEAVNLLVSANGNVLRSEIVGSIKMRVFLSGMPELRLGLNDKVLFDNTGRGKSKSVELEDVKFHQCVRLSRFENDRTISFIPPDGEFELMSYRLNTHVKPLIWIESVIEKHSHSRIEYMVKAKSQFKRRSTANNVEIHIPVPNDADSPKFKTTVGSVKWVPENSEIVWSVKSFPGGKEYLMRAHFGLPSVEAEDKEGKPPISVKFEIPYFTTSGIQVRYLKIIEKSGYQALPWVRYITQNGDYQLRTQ
Chain of UniProt P22892 (P61967 whole entry, chain 4 of 4, further chain): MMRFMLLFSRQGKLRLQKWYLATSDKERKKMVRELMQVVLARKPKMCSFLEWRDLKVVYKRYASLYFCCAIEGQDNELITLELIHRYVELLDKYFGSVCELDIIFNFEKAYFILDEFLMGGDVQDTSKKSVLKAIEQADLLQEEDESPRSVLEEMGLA

B1: peptidylglycine α-amidating monooxygenase-1 (PAM-1), endogenous in mouse pituitary (natural protein)
chain: FKETTRSFSNECLGTTRPITPIDSSDFTLDIRMPGVTPKESDTYFCMSMRLPVDEEAFVIDFKPRASMDTVHHMLLFGCNMPSSTGSYWFCDEGTCTDKANILYAWARNAPPTRLPKGVGFRVGGETGSKYFVLQVHYGDISAFRDNHKDCSGVSLHLTRVPQPLIAGMYLMMSVNTVIPPGEKVVNSDISCHYKMYPMHVFAYRVHTHHLGKVVSGYRVRNGQWTLIGRQSPQLPQAFYPVEHPVDVAFGDILAARCVFTGEGRTEATHIGGTSSDEMCNLYIMYYMEAKHAVSFMTCTQNVAPDMFRTIPEEANIPIPVKSDMVMIHGHHKETENKEKSALIQQPKQGEEEAFEQGDFYSLLSKLLGEREDVVHVHKYNPTEKTESGSDLVAEIANVVQKKDLGRSDAREGAEHEEGGNAILVRDRIHKFHRLESTLRPAESRALSFQQPGEGPWEPELAGDFHVEEALEWPGVYLLPGQVSGVALDSKNNLVIFHRGDHVWDGNSFDSKFVYQQRGLGPIEEDTILVIDPNKAEILQSSGKNLFYLPHGLSIDTDGNYWVTDVALHQVFKLEPRSKEGPLLVLGRSMQPGSDQNHFCQPTDVAVEPSTGAVFVSDGYCNSRIVQFSPSGKFITQWGEESSGSSPKPGQFSVPHSLALVPHLNQLCVADRENGRIQCFKTDTKEFVREIKHASFGRNVFAISYIPGFLFAVNGKPYFGDQEPVQGFVMNFSSGEIIDVFKPVRKHFDMPHDIVASEDGTVYIGDAHTNTVWKFTLTESRLEVEHRSVKKAGIEVPEIKEAEAVVEPKVKNKPTSSELQKMQEKKKLIKDPGSGVPVVLITTLLVIPVVVLLAIAMFIRWKKSRAFGDHDRKLESSSGRVLGRLRGKGSSGLNLGNFFASRKGYSRKGFDRVSTEGSDQEKDEDDGSESEEEYSAPLPTPAPSS
As to B1, the percent of PAM-1 co-immunoprecipitated was found to be 3%.

B2: PAM-1, stably expressed in AtT-20 cells (natural protein)
chain: FKETTRSFSNECLGTIGPVTPLDASDFALDIRMPGVTPKESDTYFCMSMRLPVDEEAFVIDFKPRASMDTVHHMLLFGCNMPSSTGSYWFCDEGTCTDKANILYAWARNAPPTRLPKGVGFRVGGETGSKYFVLQVHYGDISAFRDNHKDCSGVSVHLTRVPQPLIAGMYLMMSVDTVIPPGEKVVNADISCQYKMYPMHVFAYRVHTHHLGKVVSGYRVRNGQWTLIGRQNPQLPQAFYPVEHPVDVTFGDILAARCVFTGEGRTEATHIGGTSSDEMCNLYIMYYMEAKYALSFMTCTKNVAPDMFRTIPAEANIPIPVKPDMVMMHGHHKEAENKEKSALMQQPKQGEEEVLEQGDFYSLLSKLLGEREDVHVHKYNPTEKTESGSDLVAEIANVVQKKDLGRSDAREGAEHEEWGNAILVRDRIHRFHQLESTLRPAESRAFSFQQPGEGPWEPEPSGDFHVEEELDWPGVYLLPGQVSGVALDSKNNLVIFHRGDHVWDGNSFDSKFVYQQRGLGPIEEDTILVIDPNNAEILQSSGKNLFYLPHGLSIDTDGNYWVTDVALHQVFKLDPHSKEGPLLILGRSMQPGSDQNHFCQPTDVAVEPSTGAVFVSDGYCNSRIVQFSPSGKFVTQWGEESSGSSPRPGQFSVPHSLALVPHLDQLCVADRENGRIQCFKTDTKEFVREIKHASFGRNVFAISYIPGFLFAVNGKPYFGDQEPVQGFVMNFSSGEIIDVFKPVRKHFDMPHDIVASEDGTVYIGDAHTNTVWKFTLTEKMEHRSVKKAGIEVQEIKEAEAVVEPKVENKPTSSELQKMQEKQKLSTEPGSGVSVVLITTLLVIPVLVLLAIVMFIRWKKSRAFGDHDRKLESSSGRVLGRFRGKGSGGLNLGNFFASRKGYSRKGFDRVSTEGSDQEKDEDDGTESEEEYSAPLPKPAPSS
The molecule B2 yielded a percent of PAM-1 co-immunoprecipitated of 2%.
